Data set [1] has as its target T1, GAPDH (commercial, rabbit muscle) (Oryctolagus cuniculus, UniProt P46406 P46406:1-333). The experiment in a line: cleavage enhancement similar to IL-2-Rz2. The following applies: tags: commercial; chain copies: 4 (stated homotetramer); hammerhead ribozyme with 5'-3' end duplex.
For data set [2], the target named is GAPDH (37 kDa ribozyme-binding protein purified from PBMN cells) (Homo sapiens, UniProt P04406 P04406:2-335). The experiment in a line: ribozyme cleavage rate enhancement; 100 ng/ul GAPDH, 2 mM MgCl2, 37 C. As to conditions: tags: none; Mono Q purified from PBMN cytoplasmic extract; chain copies: 4 (stated homotetramer); label: 32P internal; hammerhead ribozyme. The procedure:
FIG. 29(A) Ribozymes (2 nM) and the [γ^32P]-labelled 20-mer target RNA (50 nM) were incubated at 37° C. in the presence or absence of different concentrations of purified protein (Filled rectangle) or lactate dehydrogenase (open rectangle) as unspecific protein in a reaction buffer containing 50 mM Tris-HCl pH 7.5 and 1 mM MgCl_2. […] The radioactivity contained in each 5' end was quantified by Phospho-Imager. […] Appropriate time (min) is indicated on the top of each lane. The radioactivity containing in each 5' end-labelled product was quantified and expressed as percentage of radioactivity present in the substrate FIG. 29(D).
Standard cleavage reactions were carried out at 37° C. in buffer containing 50 mM Tris-HCl, pH 7.5 and 10 mM MgCl_2. Multiple turnover cleavage reactions in the presence or absence of GAPDH were performed with 5 mM […], unless otherwise indicated. Ribozyme and substrate were heated separately at 90° C. for 1 min and cooled at 4° C. After this step both RNAs were mixed in cleavage buffer containing 0.2 U RNasin and then divided into 3 samples. Following addition of GAPDH or lactate dehydrogenase (LD) as an unspecific protein to one of the samples, reactions were initiated by the addition of MgCl_2. At specified times, 10 μl aliquots were removed and the reaction was stopped by the addition of 20 mM EDTA and phenol.

In data set [3] the target is T1, GAPDH (commercial, rabbit muscle). The experiment in a line: ribozyme cleavage rate enhancement; none with LD. As to conditions: tags: commercial; chain copies: 4 (stated homotetramer); hammerhead ribozyme with 5'-3' end duplex. As for the experimental part: Autoradiogram of denaturing gels of multiple turnover reactions in the absence FIG. 32(A) or in the presence of GAPDH FIG. 32(B) as well as in the presence of LD as unspecific protein FIG. 32(C). 5 nM of the ribozyme and 50 nM of […] 15-mer substrate were incubated in a reaction mixture containing 50 mM Tris-HCl pH 7.5 and 5 mM MgCl_2 at 37° C. in the absence or presence of proteins (150 ng/μl) and then processed as described below. FIG. 32(D) Quantification of the data shown in A, B and C by Phospho-Imager. Appropriate time (min) is indicated on the top of each lane. FIG. 32(E) Control experiments. A Phospho-Imager printout is shown following separation of the products by 15% PAGE gel. No cleavage activity was seen upon addition of GAPDH in absence of Mg^++ (lane 4). The cleavage rate of the ribozyme (lane 2) is enhanced by the addition of GAPDH (Lane 3). This cleavage enhancement is shut down by phenol treatment of the GAPDH preparation prior to addition (lane 5). Arrows indicated the cleavage products.
Standard cleavage reactions were carried out at 37° C. in buffer containing 50 mM Tris-HCl, pH 7.5 and 10 mM MgCl_2. Multiple turnover cleavage reactions in the presence or absence of GAPDH were performed with 5 mM […], unless otherwise indicated. Ribozyme and substrate were heated separately at 90° C. for 1 min and cooled at 4° C. […]

T1 sequence (P46406 whole entry, one chain of several): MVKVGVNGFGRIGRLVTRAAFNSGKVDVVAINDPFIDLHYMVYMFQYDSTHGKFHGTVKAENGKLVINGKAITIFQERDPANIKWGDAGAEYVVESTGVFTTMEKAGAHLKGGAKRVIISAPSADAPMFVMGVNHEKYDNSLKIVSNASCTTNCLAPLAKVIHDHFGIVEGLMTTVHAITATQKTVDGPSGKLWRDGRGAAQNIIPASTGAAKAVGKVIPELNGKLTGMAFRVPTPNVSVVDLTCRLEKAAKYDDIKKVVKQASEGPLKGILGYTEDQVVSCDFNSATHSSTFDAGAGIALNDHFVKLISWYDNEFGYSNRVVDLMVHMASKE
Chain of GAPDH (37 kDa ribozyme-binding protein purified from PBMN cells) (P04406 2-335, one chain of several): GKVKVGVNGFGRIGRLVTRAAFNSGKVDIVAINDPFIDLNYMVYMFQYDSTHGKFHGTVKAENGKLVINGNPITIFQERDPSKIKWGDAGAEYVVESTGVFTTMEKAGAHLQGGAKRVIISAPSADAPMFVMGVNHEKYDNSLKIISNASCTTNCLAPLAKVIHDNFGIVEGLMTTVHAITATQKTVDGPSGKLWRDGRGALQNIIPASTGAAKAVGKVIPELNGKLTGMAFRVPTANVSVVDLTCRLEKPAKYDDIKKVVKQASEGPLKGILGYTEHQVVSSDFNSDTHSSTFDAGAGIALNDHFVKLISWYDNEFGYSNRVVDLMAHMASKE

B1: IL-2-Rz3 (ssRNA)
RNA: GACUUAGUGCAAUGCAACUGAUGAGUCCGUGAGGACGAAACAGGAGUUGCGAAUU
On to B1, for which the activity in data set [1] was around 15 fold.

B2: TNF-alpha-Rz (ssRNA)
RNA: GUAAGAUGAUCUCUGAUGAGUCCGUGAGGACGAAACUGCCUGGUACUGAAUU
B2: in data set [2], the activity is 3.8 fold.
With GGUGCAAUGCAACUGAUGAGUCCGUGAGGACGAAACAGGAGUUGCGAAUU (ssRNA) [IL-2-Rz2], in data set [3], the activity worked out at 15 fold.

For the origin of these results see patent US5864028, “Degradation resistant mRNA derivatives linked to TNF-α ribozymes” (Gene Shears Pty. Limited).
